Consider 25 molecules from US20240066131A1 (Protagonist Therapeutics, Inc., priority 2020, published 2024).

First the molecules themselves.
B1: Isovaleric Acid-A-T-H-E-P-K-I-[Lys(Ahx_Palm)]-[bhPhe]-R-NH2; (E and K cyclized) (peptide)
peptide: Isovaleryl-ATHEPKIK([Ahx-Palmitoyl])[β3hF]R-NH2
modifications: lactam 4-6
SMILES: CCCCCCCCCCCCCCCC(=O)NCCCCCC(=O)NCCCC[C@H](NC(=O)[C@@H](NC(=O)[C@@H]1CCCCNC(=O)CC[C@H](NC(=O)[C@H](Cc2c[nH]cn2)NC(=O)[C@@H](NC(=O)[C@H](C)NC(=O)CC(C)C)[C@@H](C)O)C(=O)N2CCC[C@H]2C(=O)N1)[C@@H](C)CC)C(=O)N[C@H](CC(=O)N[C@@H](CCCNC(=N)N)C(N)=O)Cc1ccccc1
B2: Isovaleric Acid-[Tet1]-T-[(1Me)His]-[Dpa]-P-A-I-[Lys(Ahx_Palm)]-[bhPhe]-NH2 (peptide)
peptide: Isovaleryl-[Ala(1H-tetrazol-5-yl)]T[His(τ-Me)][Dip]PAIK([Ahx-Palmitoyl])[β3hF]-NH2
SMILES: CCCCCCCCCCCCCCCC(=O)NCCCCCC(=O)NCCCC[C@H](NC(=O)[C@@H](NC(=O)[C@H](C)NC(=O)[C@@H]1CCCN1C(=O)[C@@H](NC(=O)[C@H](Cc1cn(C)cn1)NC(=O)[C@@H](NC(=O)[C@H](Cc1nnn[nH]1)NC(=O)CC(C)C)[C@@H](C)O)C(c1ccccc1)c1ccccc1)[C@@H](C)CC)C(=O)N[C@H](CC(N)=O)Cc1ccccc1
B3: Isovaleric Acid-K-T-H-[Dpa]-P-A-I-[Lys(Ahx_Palm)]-[bhPhe]-E-NH2; (K and E cyclized) (peptide)
peptide: Isovaleryl-KTH[Dip]PAIK([Ahx-Palmitoyl])[β3hF]E-NH2
modifications: lactam 1-10
SMILES: CCCCCCCCCCCCCCCC(=O)NCCCCCC(=O)NCCCC[C@@H]1NC(=O)[C@H]([C@@H](C)CC)NC(=O)[C@H](C)NC(=O)[C@@H]2CCCN2C(=O)[C@H](C(c2ccccc2)c2ccccc2)NC(=O)[C@H](Cc2c[nH]cn2)NC(=O)[C@H]([C@@H](C)O)NC(=O)[C@@H](NC(=O)CC(C)C)CCCCNC(=O)CC[C@@H](C(N)=O)NC(=O)C[C@H](Cc2ccccc2)NC1=O
B4: Isovaleric Acid-L-T-[(1Me)His]-[Dpa]-P-A-I-[Lys(Ahx_Palm)]-[bhPhe]-NH2 (peptide)
peptide: Isovaleryl-LT[His(τ-Me)][Dip]PAIK([Ahx-Palmitoyl])[β3hF]-NH2
SMILES: CCCCCCCCCCCCCCCC(=O)NCCCCCC(=O)NCCCC[C@H](NC(=O)[C@@H](NC(=O)[C@H](C)NC(=O)[C@@H]1CCCN1C(=O)[C@@H](NC(=O)[C@H](Cc1cn(C)cn1)NC(=O)[C@@H](NC(=O)[C@H](CC(C)C)NC(=O)CC(C)C)[C@@H](C)O)C(c1ccccc1)c1ccccc1)[C@@H](C)CC)C(=O)N[C@H](CC(N)=O)Cc1ccccc1
B5: Isovaleric Acid-A-T-H-[Dpa]-P-E-I-[(D)Lys]-[bhPhe]-[Lys(Ahx_Palm)]-R-NH2; (E and (D)Lys cyclized) (peptide)
peptide: Isovaleryl-ATH[Dip]PEI[dK][β3hF]K([Ahx-Palmitoyl])R-NH2
modifications: lactam 6-8
SMILES: CCCCCCCCCCCCCCCC(=O)NCCCCCC(=O)NCCCC[C@H](NC(=O)C[C@H](Cc1ccccc1)NC(=O)[C@H]1CCCCNC(=O)CC[C@H](NC(=O)[C@@H]2CCCN2C(=O)[C@@H](NC(=O)[C@H](Cc2c[nH]cn2)NC(=O)[C@@H](NC(=O)[C@H](C)NC(=O)CC(C)C)[C@@H](C)O)C(c2ccccc2)c2ccccc2)C(=O)N[C@@H]([C@@H](C)CC)C(=O)N1)C(=O)N[C@@H](CCCNC(=N)N)C(N)=O
B6: Isovaleric Acid-L-T-H-[Dpa]-P-A-I-[(N-Me)Lys]-[bhPhe]-[Lys(Ahx_Palm)]-NH2 (peptide)
peptide: Isovaleryl-LTH[Dip]PAI[NMeK][β3hF]K([Ahx-Palmitoyl])-NH2
SMILES: CCCCCCCCCCCCCCCC(=O)NCCCCCC(=O)NCCCC[C@H](NC(=O)C[C@H](Cc1ccccc1)NC(=O)[C@H](CCCCN)N(C)C(=O)[C@@H](NC(=O)[C@H](C)NC(=O)[C@@H]1CCCN1C(=O)[C@@H](NC(=O)[C@H](Cc1c[nH]cn1)NC(=O)[C@@H](NC(=O)[C@H](CC(C)C)NC(=O)CC(C)C)[C@@H](C)O)C(c1ccccc1)c1ccccc1)[C@@H](C)CC)C(N)=O
B7: Isovaleric Acid-A-T-H-[Dpa]-P-K-I-E-[bhPhe]-[Lys(Ahx_Palm)]-R-NH2; (K and E cyclized) (peptide)
peptide: Isovaleryl-ATH[Dip]PKIE[β3hF]K([Ahx-Palmitoyl])R-NH2
modifications: lactam 6-8
SMILES: CCCCCCCCCCCCCCCC(=O)NCCCCCC(=O)NCCCC[C@H](NC(=O)C[C@H](Cc1ccccc1)NC(=O)[C@@H]1CCC(=O)NCCCC[C@H](NC(=O)[C@@H]2CCCN2C(=O)[C@@H](NC(=O)[C@H](Cc2c[nH]cn2)NC(=O)[C@@H](NC(=O)[C@H](C)NC(=O)CC(C)C)[C@@H](C)O)C(c2ccccc2)c2ccccc2)C(=O)N[C@@H]([C@@H](C)CC)C(=O)N1)C(=O)N[C@@H](CCCNC(=N)N)C(N)=O
B8: Isovaleric Acid-E-T-H-[Dpa]-P-A-I-[(D)Lys]-[bhPhe]-[Lys(Ahx_Palm)]-[(D)Lys]-NH2 (peptide)
peptide: Isovaleryl-ETH[Dip]PAI[dK][β3hF]K([Ahx-Palmitoyl])[dK]-NH2
SMILES: CCCCCCCCCCCCCCCC(=O)NCCCCCC(=O)NCCCC[C@H](NC(=O)C[C@H](Cc1ccccc1)NC(=O)[C@@H](CCCCN)NC(=O)[C@@H](NC(=O)[C@H](C)NC(=O)[C@@H]1CCCN1C(=O)[C@@H](NC(=O)[C@H](Cc1c[nH]cn1)NC(=O)[C@@H](NC(=O)[C@H](CCC(=O)O)NC(=O)CC(C)C)[C@@H](C)O)C(c1ccccc1)c1ccccc1)[C@@H](C)CC)C(=O)N[C@H](CCCCN)C(N)=O
B9: Isovaleric Acid-[Tet1]-T-[(1-Me)His]-[Dpa]-P-A-I-[bhPhe]-[(D)Lys]-NH2 (peptide)
peptide: Isovaleryl-[Ala(1H-tetrazol-5-yl)]T[His(τ-Me)][Dip]PAI[β3hF][dK]-NH2
SMILES: CC[C@H](C)[C@H](NC(=O)[C@H](C)NC(=O)[C@@H]1CCCN1C(=O)[C@@H](NC(=O)[C@H](Cc1cn(C)cn1)NC(=O)[C@@H](NC(=O)[C@H](Cc1nnn[nH]1)NC(=O)CC(C)C)[C@@H](C)O)C(c1ccccc1)c1ccccc1)C(=O)N[C@H](CC(=O)N[C@H](CCCCN)C(N)=O)Cc1ccccc1
B10: Isovaleric Acid-A-T-H-K-P-E-I-[Lys(Ahx_Palm)]-[bhPhe]-R-NH2; (K and E cyclized) (peptide)
peptide: Isovaleryl-ATHKPEIK([Ahx-Palmitoyl])[β3hF]R-NH2
modifications: lactam 4-6
SMILES: CCCCCCCCCCCCCCCC(=O)NCCCCCC(=O)NCCCC[C@H](NC(=O)[C@@H](NC(=O)[C@@H]1CCC(=O)NCCCC[C@H](NC(=O)[C@H](Cc2c[nH]cn2)NC(=O)[C@@H](NC(=O)[C@H](C)NC(=O)CC(C)C)[C@@H](C)O)C(=O)N2CCC[C@H]2C(=O)N1)[C@@H](C)CC)C(=O)N[C@H](CC(=O)N[C@@H](CCCNC(=N)N)C(N)=O)Cc1ccccc1

Starred links: 1 amine or outer side, 2 acyl side, 3 side chain; linkers in the order of their positions; H or OH if unused. Positions of bridges follow the written chain, without caps; N, C: chain ends. Non-standard residues stand in square brackets, D forms with d. Groups on a side chain read outwards from the residue. *: point of attachment. ButanoicP = (R)-4-(pyrrolidin-2-yl)butanoic acid, O=C(CCC[C@@H]1CCCN1[*:1])[*:2]; Ala(1H-tetrazol-5-yl) = N[C@@H](Cc1nnn[nH]1)C(=O)O; Dip = N[C@H](C(=O)O)C(c1ccccc1)c1ccccc1; His(τ-Me) = Cn1cnc(C[C@H](N)C(=O)O)c1; Palmitoyl = CCCCCCCCCCCCCCCC(=O)*; β3hF = N[C@H](CC(=O)O)Cc1ccccc1; NMeK = CN[C@@H](CCCCN)C(=O)O; Isovaleryl = CC(C)CC(=O)*; IDA = iminodiacetic acid; Ahx = NCCCCCC(=O)O

For this assay, the target named is T1, human ferroportin (SLC40A1) fused in frame with GFP, stably expressed in HEK293 cells (human, UniProt Q9NP59 1-571).
T1 sequence (looked up): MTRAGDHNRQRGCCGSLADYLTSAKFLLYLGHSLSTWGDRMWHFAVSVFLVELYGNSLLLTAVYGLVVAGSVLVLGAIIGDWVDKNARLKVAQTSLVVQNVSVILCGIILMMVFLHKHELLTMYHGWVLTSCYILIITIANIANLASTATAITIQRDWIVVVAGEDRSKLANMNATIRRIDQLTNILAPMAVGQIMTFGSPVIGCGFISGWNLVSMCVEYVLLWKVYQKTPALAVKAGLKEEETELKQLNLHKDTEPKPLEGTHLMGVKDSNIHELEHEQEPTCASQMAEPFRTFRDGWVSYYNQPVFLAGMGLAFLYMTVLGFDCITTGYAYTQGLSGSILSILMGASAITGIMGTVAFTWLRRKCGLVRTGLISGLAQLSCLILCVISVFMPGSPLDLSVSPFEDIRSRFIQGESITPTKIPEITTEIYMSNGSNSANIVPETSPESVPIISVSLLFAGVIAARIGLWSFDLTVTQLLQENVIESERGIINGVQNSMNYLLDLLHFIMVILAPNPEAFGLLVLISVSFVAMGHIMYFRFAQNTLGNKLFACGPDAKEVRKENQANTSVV
Description: cell-based or functional assay.
As for Isovaleryl-[N‑(CH2CH2CH2CO2H)Gly]TH[Dip]PAIK([Ahx-Palmitoyl])[β3hF]-NH2 [Isovaleric Acid-[N-(CH2CH2CH2CO2H)Gly]-T-H-[Dpa]-P-A-I-[Lys(Ahx_Palm)]-[bhPhe]-NH2], the “FPN EC50” value was 202 nM.
Turning to B1, the “FPN EC50” value is > 3000 nM.
Take {Isophthalic Acid}-ETH[Dip]PIIK(Ac)[β3hF]-NH2 [[Isophthalic Acid]-E-T-H-[Dpa]-P-I-I-[Lys(Ac)]-[bhPhe]-NH2]: the “FPN EC50” value was > 5000 nM.
Under Isovaleryl-ET[N‑(CH2CH2-imidazol4-yl)Gly][Dip]PAIK([Ahx-Palmitoyl])[β3hF]-NH2 [Isovaleric Acid-E-T-[N-(CH2CH2-imidazol4-yl)Gly]-[Dpa]-P-A-I-[Lys(Ahx_Palm)]-[bhPhe]-NH2] stands > 3000 nM; under B2, 63.1 nM.
Under Isovaleryl-ETH[Dip][ButanoicP]K([Ahx-Palmitoyl])[β3hF]-NH2 [Isovaleric Acid-E-T-H-[Dpa]-[ButanoicP]-[Lys(Ahx_Palm)]-[bhPhe]-NH2] stands 20.5 nM.
Regarding {3,3,3‑Trifluoro propionic acid}-ETH[Dip]PIIK(Ac)[β3hF]-NH2 [[3,3,3-Trifluoro propionic acid]-E-T-H-[Dpa]-P-I-I-[Lys(Ac)]-[bhPhe]-NH2], the “FPN EC50” value was found to be 5740 nM.
In the case of Glutaric_Acid-ETH[Dip]PIIK(Ac)[β3hF]-NH2 [[Glutaric_Acid]-E-T-H-[Dpa]-P-I-I-[Lys(Ac)]-[bhPhe]-NH2], the “FPN EC50” value is > 3000 nM.
Turning to {(3-Trifluoromethyl)butyric acid}-ETH[Dip]PIIK(Ac)[β3hF]-NH2 [[(3-Trifluoromethyl)butyric acid]-E-T-H-[Dpa]-P-I-I-[Lys(Ac)]-[bhPhe]-NH2], the “FPN EC50” value was determined as 2080 nM.
For B3, the “FPN EC50” value was found to be 184 nM.
Under Isovaleryl-LT[His(τ-Me)][Dip]PAI[NMeK][β3hF]K([Ahx-Palmitoyl])-NH2 [Isovaleric Acid-L-T-[(1Me)His]-[Dpa]-P-A-I-[(N-Me)Lys)]-[bhPhe]-[Lys(Ahx_Palm)]-NH2] stands 95.9 nM.
B4: the “FPN EC50” value is > 3000 nM.
Under B5 stands 61.2 nM.
For B6, the “FPN EC50” value was determined as 103 nM.
On to Gallic_Acid-ETH[Dip]PIIK(Ac)[β3hF]-NH2 [[Gallic_Acid]-E-T-H-[Dpa]-P-I-I-[Lys(Ac)]-[bhPhe]-NH2], for which the “FPN EC50” value was > 3000 nM.
On to Pimelic_Acid-ETH[Dip]PIIK(Ac)[β3hF]-NH2 [[Pimelic_Acid]-E-T-H-[Dpa]-P-I-I-[Lys(Ac)]-[bhPhe]-NH2], for which the “FPN EC50” value is > 5000 nM.
In the case of Succinic_Acid-ETH[Dip]PIIK(Ac)[β3hF]-NH2 [[Succinic_Acid]-E-T-H-[Dpa]-P-I-I-[Lys(Ac)]-[bhPhe]-NH2] it was > 3000 nM; in that of B7, 90.7 nM.
Isovaleryl-[dE]TH[Dip]PIIK(Ac)[β3hF]-NH2 [Isovaleric Acid-[(D)Glu]-T-H-[Dpa]-P-I-I-[Lys(Ac)]-[bhPhe]-NH2]: the “FPN EC50” value came to 1450 nM.
Consider {IDA}-ETH[Dip]PIIK(Ac)[β3hF]-NH2 [[IDA]-E-T-H-[Dpa]-P-I-I-[Lys(Ac)]-[bhPhe]-NH2], for which the “FPN EC50” value is > 5000 nM.
In the case of B8 it was 45.5 nM; in that of Isovaleryl-E[N‑(CH2CH2OH)Gly]H[Dip]PAIK([Ahx-Palmitoyl])[β3hF]-NH2 [Isovaleric Acid-E-[N-(CH2CH2OH)Gly]-H-[Dpa]-P-A-I-[Lys(Ahx_Palm)]-[bhPhe]-NH2], 2230 nM.
Regarding B9, the “FPN EC50” value came out at 378 nM.
On to Isovaleryl-ETH[Dip]PKIK([Ahx-Palmitoyl])[β3hF][dK]-NH2 (lactam 1-6 (inferred)) [Isovaleric Acid-E-T-H-[Dpa]-P-K-I-[Lys(Ahx_Palm)]-[bhPhe]-[(D)Lys]-NH2; (E and K cyclized)], for which the “FPN EC50” value was determined as 122 nM.
Take B10: the “FPN EC50” value is > 3000 nM.
